Measurements reported in the supplement of paper PMC9732359.
± gives the uncertainty stated by the source.

Assay: protein stability index of a GFP-peptide fusion (yeast GPS) (PSI 1-4); higher = more stable; sorted into four equal gates, so the index is relative within each strain
Summary of the method: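 Tiled yeast protein peptides of 17 residues were each joined downstream of GFP, on plasmids that also express Cherry. The pooled library was maintained in yeast, and mid-log cultures in leucine-free medium were sorted into four equal gates on the GFP/Cherry ratio. Plasmids from every gate were amplified by PCR and sequenced on Illumina, with barcodes linking reads to strains. The protein stability index of a peptide is its gate-number-weighted read frequency summed over the gates.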

## DPEKDSINATALAFGYV [SIN4]
doa10∆
  protein stability index: 2.16 ± 0.052
pdr5∆
  protein stability index: 1.56 ± 0.058
san1∆
  protein stability index: 1.52 ± 0.15
ubr1∆
  protein stability index: 1.82 ± 0.042

## LAKKIAPGKVELAINLI [SMC2]
pdr5∆
  protein stability index: 2.88 ± 0.15
ubr1∆
  protein stability index: 2.65 ± 0.1

## KFKKEKFDIIIVDTSGR [SRP54]
doa10∆
  protein stability index: 2.84 ± 0.046
pdr5∆
  protein stability index: 3.01 ± 0.036
san1∆
  protein stability index: 2.95 ± 0.034
ubr1∆
  protein stability index: 3.1 ± 0.04

## KDVKAWAGKRLWDQDIA [COR1]
doa10∆
  protein stability index: 3.52 ± 0.11
pdr5∆
  protein stability index: 3.4 ± 0.11
san1∆
  protein stability index: 3.27 ± 0.061
ubr1∆
  protein stability index: 3.2 ± 0.091

## VRELGILCIFEGEKCHP [SEC65]
doa10∆
  protein stability index: 2.01 ± 0.052
pdr5∆
  protein stability index: 2.43 ± 0.064
san1∆
  protein stability index: 2.67 ± 0.051
ubr1∆
  protein stability index: 2.45 ± 0.042

## QRKEIKDRISSCSSKEK [SMC4]
doa10∆
  protein stability index: 2.28 ± 0.1
pdr5∆
  protein stability index: 2.7 ± 0.063
san1∆
  protein stability index: 2.49 ± 0.12
ubr1∆
  protein stability index: 2.89 ± 0.09

## ILCGIQEYLNPVIDTQI [YDL116W/NUP84]
pdr5∆
  protein stability index: 2.12 ± 0.2
san1∆
  protein stability index: 2.01 ± 0.17

## LRLLLLLIEFPYLPKHY [YJR042W/NUP85]
doa10∆
  protein stability index: 1.81 ± 0.052
pdr5∆
  protein stability index: 1.72 ± 0.054
san1∆
  protein stability index: 1.55 ± 0.062
ubr1∆
  protein stability index: 1.76 ± 0.047

## NTLVRPNGTKKAYVRLT [RPL25]
san1∆
  protein stability index: 3.03 ± 0.17
ubr1∆
  protein stability index: 3.35 ± 0.15

## GSVFNMNGNTNANTVFA [YOR098C/NUP1]
doa10∆
  protein stability index: 2.29 ± 0.095
pdr5∆
  protein stability index: 3 ± 0.12
san1∆
  protein stability index: 3.01 ± 0.17
ubr1∆
  protein stability index: 2.44 ± 0.066

## TWIQQFKSTMLQVSEKD [ARP7]
doa10∆
  protein stability index: 1.89 ± 0.065
pdr5∆
  protein stability index: 1.86 ± 0.066
san1∆
  protein stability index: 1.27 ± 0.14
ubr1∆
  protein stability index: 1.73 ± 0.053

## TGKERSKKRKLNSLTNL [SNM1]
doa10∆
  protein stability index: 2.41 ± 0.11
pdr5∆
  protein stability index: 3.04 ± 0.093
san1∆
  protein stability index: 2.89 ± 0.075
ubr1∆
  protein stability index: 2.67 ± 0.13

## EDYPMSSEIKIYYNELQ [SIR4]
doa10∆
  protein stability index: 1.95 ± 0.13
pdr5∆
  protein stability index: 3.16 ± 0.13
san1∆
  protein stability index: 2.53 ± 0.25
ubr1∆
  protein stability index: 3.02 ± 0.079

## PEIPLVVSTDLESIQKT [RPL4A]
doa10∆
  protein stability index: 2.96 ± 0.071
pdr5∆
  protein stability index: 3.05 ± 0.086
san1∆
  protein stability index: 3.16 ± 0.052
ubr1∆
  protein stability index: 2.81 ± 0.062

## YLQETAISGKKTTYYYY [RPC82]
doa10∆
  protein stability index: 2.77 ± 0.079
pdr5∆
  protein stability index: 3.02 ± 0.14
san1∆
  protein stability index: 2.84 ± 0.057
ubr1∆
  protein stability index: 3.07 ± 0.075

## KDLKHIIYYKFNKNLGK [PRP8]
doa10∆
  protein stability index: 1.14 ± 0.052
pdr5∆
  protein stability index: 1.28 ± 0.053
san1∆
  protein stability index: 1.32 ± 0.11
ubr1∆
  protein stability index: 1.17 ± 0.061

## DTVNSALENDVATNIVN [YML103C/NUP188]
doa10∆
  protein stability index: 2.87 ± 0.051
pdr5∆
  protein stability index: 3.14 ± 0.064
san1∆
  protein stability index: 3.09 ± 0.046
ubr1∆
  protein stability index: 3.19 ± 0.055

## FIYDTEKNGGLGWDLDA [FAS2]
doa10∆
  protein stability index: 3.21 ± 0.088
pdr5∆
  protein stability index: 2.96 ± 0.12
san1∆
  protein stability index: 3.31 ± 0.051
ubr1∆
  protein stability index: 2.52 ± 0.054

## EKDASGKPSFVFGASDK [YOR098C/NUP1]
doa10∆
  protein stability index: 2.63 ± 0.067
pdr5∆
  protein stability index: 2.52 ± 0.065
san1∆
  protein stability index: 2.98 ± 0.076
ubr1∆
  protein stability index: 2.37 ± 0.074

## IPFQTLYRSIESGEFDF [YJL039C/NUP192]
doa10∆
  protein stability index: 1.95 ± 0.061
pdr5∆
  protein stability index: 2.27 ± 0.062
san1∆
  protein stability index: 2.11 ± 0.1
ubr1∆
  protein stability index: 1.99 ± 0.032

## GMGGGMPDMNEMMKMMQ [SRP54]
doa10∆
  protein stability index: 3.17 ± 0.21
pdr5∆
  protein stability index: 3.51 ± 0.23
san1∆
  protein stability index: 3.58 ± 0.083
ubr1∆
  protein stability index: 3.35 ± 0.081

## IAKTFTVDVSSPTENGV [RPL22A]
doa10∆
  protein stability index: 3.04 ± 0.11
pdr5∆
  protein stability index: 3 ± 0.1
san1∆
  protein stability index: 2.9 ± 0.094
ubr1∆
  protein stability index: 2.99 ± 0.077

## EFKSIEIEMKNKLEKLN [SMC4]
doa10∆
  protein stability index: 1.68 ± 0.058
pdr5∆
  protein stability index: 1.51 ± 0.075
san1∆
  protein stability index: 1.42 ± 0.19
ubr1∆
  protein stability index: 1.37 ± 0.046

## PEGTLSGGSRNTSESLL [SMC2]
doa10∆
  protein stability index: 3.4 ± 0.2
pdr5∆
  protein stability index: 3.29 ± 0.15
san1∆
  protein stability index: 3.44 ± 0.13
ubr1∆
  protein stability index: 3.28 ± 0.25

## MKYVRETSGVTTALLKD [MED8]
doa10∆
  protein stability index: 2.72 ± 0.099
pdr5∆
  protein stability index: 3.31 ± 0.12
san1∆
  protein stability index: 3 ± 0.081
ubr1∆
  protein stability index: 2.21 ± 0.24

## VRTHMRNMIIVPEMIGS [RPS15]
doa10∆
  protein stability index: 1.25 ± 0.059
pdr5∆
  protein stability index: 1.47 ± 0.06
san1∆
  protein stability index: 1.39 ± 0.12
ubr1∆
  protein stability index: 1.54 ± 0.05

## PEKTSTELVDGRENFVY [SIR3]
doa10∆
  protein stability index: 3.08 ± 0.099
pdr5∆
  protein stability index: 3.25 ± 0.15
san1∆
  protein stability index: 3.1 ± 0.12
ubr1∆
  protein stability index: 3 ± 0.088

## VQESGNIDYQKGLLIWR [GRR1]
doa10∆
  protein stability index: 3.35 ± 0.091
pdr5∆
  protein stability index: 3.13 ± 0.1
san1∆
  protein stability index: 3.37 ± 0.1
ubr1∆
  protein stability index: 2.75 ± 0.079

## HMATALQIAQLTLKHRQ [RPN10]
doa10∆
  protein stability index: 1.58 ± 0.13
pdr5∆
  protein stability index: 1.8 ± 0.084
san1∆
  protein stability index: 1.59 ± 0.11
ubr1∆
  protein stability index: 1.62 ± 0.068

## SDGIVLAAERKVTSTLL [PRE9]
doa10∆
  protein stability index: 2.39 ± 0.1
pdr5∆
  protein stability index: 1.58 ± 0.065
ubr1∆
  protein stability index: 1.85 ± 0.075

## EFTENELNVDSMDVDDK [ITC1]
doa10∆
  protein stability index: 3.18 ± 0.16
pdr5∆
  protein stability index: 3.24 ± 0.19
san1∆
  protein stability index: 3.31 ± 0.11
ubr1∆
  protein stability index: 3.25 ± 0.093

## GSNQQSSTGGGLFGNKP [YGR119C/NUP57]
doa10∆
  protein stability index: 3.36 ± 0.093
pdr5∆
  protein stability index: 3.28 ± 0.084
san1∆
  protein stability index: 3.23 ± 0.058
ubr1∆
  protein stability index: 3.28 ± 0.042

## VYDIMALEDEERDEILT [BRR2]
doa10∆
  protein stability index: 3.15 ± 0.16
pdr5∆
  protein stability index: 3.28 ± 0.15
san1∆
  protein stability index: 3.08 ± 0.078
ubr1∆
  protein stability index: 3.39 ± 0.096

## VDEPMTSAVELGAIEQI [YJL039C/NUP192]
doa10∆
  protein stability index: 3.41 ± 0.3
pdr5∆
  protein stability index: 3.66 ± 0.17
san1∆
  protein stability index: 3 ± 0.16
ubr1∆
  protein stability index: 2.87 ± 0.28

## QKVSENFEAVFERLVPR [SMC3]
doa10∆
  protein stability index: 2.53 ± 0.28

## ADVFTDDDLFETLVLSY [YCG1]
doa10∆
  protein stability index: 2.46 ± 0.09
pdr5∆
  protein stability index: 2.65 ± 0.056
san1∆
  protein stability index: 2.85 ± 0.064
ubr1∆
  protein stability index: 2.06 ± 0.041

## DITSDQLLQRLNDMNTE [SMC3]
doa10∆
  protein stability index: 3.46 ± 0.16
san1∆
  protein stability index: 3.24 ± 0.13
ubr1∆
  protein stability index: 3.17 ± 0.12

## LYRLSTPLRDEVTDKNY [PRP8]
doa10∆
  protein stability index: 3.13 ± 0.096
pdr5∆
  protein stability index: 2.88 ± 0.066
san1∆
  protein stability index: 3.02 ± 0.067
ubr1∆
  protein stability index: 3.11 ± 0.059

## VAQLKPFFKYIDDANVT [RPC37]
doa10∆
  protein stability index: 2.81 ± 0.078
pdr5∆
  protein stability index: 2.9 ± 0.07
san1∆
  protein stability index: 2.9 ± 0.062
ubr1∆
  protein stability index: 2.8 ± 0.07

## LGFEVKDQALIGTINSI [SIR2]
doa10∆
  protein stability index: 2.12 ± 0.051
pdr5∆
  protein stability index: 2.48 ± 0.062
san1∆
  protein stability index: 2.27 ± 0.054
ubr1∆
  protein stability index: 2.35 ± 0.073

## DFPELKPYKQVKQIAPA [FAS2]
doa10∆
  protein stability index: 2.29 ± 0.066
pdr5∆
  protein stability index: 2.46 ± 0.069
san1∆
  protein stability index: 2.58 ± 0.07
ubr1∆
  protein stability index: 2.66 ± 0.057

## LLLRCDDRVDKKFVSQI [POP3]
doa10∆
  protein stability index: 3.27 ± 0.11
pdr5∆
  protein stability index: 3.34 ± 0.066
san1∆
  protein stability index: 3.03 ± 0.054
ubr1∆
  protein stability index: 3.22 ± 0.042

## ARERKTATYNDNMSEEQ [SNF2]
doa10∆
  protein stability index: 3.13 ± 0.11
pdr5∆
  protein stability index: 2.91 ± 0.11
san1∆
  protein stability index: 3.46 ± 0.11
ubr1∆
  protein stability index: 3.22 ± 0.085

## QVFSVKDSTAGKKVFET [YJR042W/NUP85]
san1∆
  protein stability index: 3.09 ± 0.2

## AGTEANAVSFDTTFSDF [SRB4]
doa10∆
  protein stability index: 3.03 ± 0.042
pdr5∆
  protein stability index: 3.06 ± 0.045
san1∆
  protein stability index: 3.036 ± 0.029
ubr1∆
  protein stability index: 3.02 ± 0.038

## ETELPTLSLPDSQDYIL [SMC1]
doa10∆
  protein stability index: 3.1 ± 0.043
pdr5∆
  protein stability index: 3.19 ± 0.054
san1∆
  protein stability index: 3.11 ± 0.037
ubr1∆
  protein stability index: 3.29 ± 0.055

## DKGAVGPNNFIWPAEDA [MED4]
doa10∆
  protein stability index: 3.51 ± 0.25
pdr5∆
  protein stability index: 3.43 ± 0.24
ubr1∆
  protein stability index: 3.23 ± 0.15

## ITGEDEVLCSRIIEKSV [RRP45]
doa10∆
  protein stability index: 2 ± 0.051
pdr5∆
  protein stability index: 2.45 ± 0.054
san1∆
  protein stability index: 2.1 ± 0.098
ubr1∆
  protein stability index: 1.89 ± 0.059

## ESPLSVAIQQGDIKPEF [YML103C/NUP188]
doa10∆
  protein stability index: 2.23 ± 0.11
pdr5∆
  protein stability index: 1.44 ± 0.08
san1∆
  protein stability index: 1.95 ± 0.11
ubr1∆
  protein stability index: 2.38 ± 0.075

## SEILIISSLMFDEEFDP [IRR1]
doa10∆
  protein stability index: 2.5 ± 0.094
pdr5∆
  protein stability index: 2.63 ± 0.095
san1∆
  protein stability index: 2.67 ± 0.098
ubr1∆
  protein stability index: 2.97 ± 0.07

## NTTQDNGGDKELEMIGG [YCS4]
doa10∆
  protein stability index: 3.26 ± 0.17
pdr5∆
  protein stability index: 3.06 ± 0.17
san1∆
  protein stability index: 2.46 ± 0.2
ubr1∆
  protein stability index: 3.26 ± 0.23

## DDSFFNETNDKKRNPSK [PRP28]
doa10∆
  protein stability index: 3.16 ± 0.098
pdr5∆
  protein stability index: 2.96 ± 0.1
san1∆
  protein stability index: 3.13 ± 0.072
ubr1∆
  protein stability index: 2.85 ± 0.084

## SLDLIKERRSLKPEVRK [RPL24A]
ubr1∆
  protein stability index: 3.32 ± 0.22

## YPVRIPRLDTSKEFSAY [YJR042W/NUP85]
doa10∆
  protein stability index: 2.84 ± 0.077
pdr5∆
  protein stability index: 2.4 ± 0.061
san1∆
  protein stability index: 2.51 ± 0.075
ubr1∆
  protein stability index: 2.91 ± 0.058

## NQQQQNQQPQQQQQQQQ [SWI1]
doa10∆
  protein stability index: 3.06 ± 0.049
pdr5∆
  protein stability index: 2.93 ± 0.037
san1∆
  protein stability index: 2.88 ± 0.03
ubr1∆
  protein stability index: 2.83 ± 0.032
